# Test results as given in US20220098307A1 (WUHAN YZY BIOPHARMA, published 2022).
# Residue numbers refer to the chain shown, from its start.
# T1: human CEA (human, UniProt P06731 35-685)
# T1 sequence: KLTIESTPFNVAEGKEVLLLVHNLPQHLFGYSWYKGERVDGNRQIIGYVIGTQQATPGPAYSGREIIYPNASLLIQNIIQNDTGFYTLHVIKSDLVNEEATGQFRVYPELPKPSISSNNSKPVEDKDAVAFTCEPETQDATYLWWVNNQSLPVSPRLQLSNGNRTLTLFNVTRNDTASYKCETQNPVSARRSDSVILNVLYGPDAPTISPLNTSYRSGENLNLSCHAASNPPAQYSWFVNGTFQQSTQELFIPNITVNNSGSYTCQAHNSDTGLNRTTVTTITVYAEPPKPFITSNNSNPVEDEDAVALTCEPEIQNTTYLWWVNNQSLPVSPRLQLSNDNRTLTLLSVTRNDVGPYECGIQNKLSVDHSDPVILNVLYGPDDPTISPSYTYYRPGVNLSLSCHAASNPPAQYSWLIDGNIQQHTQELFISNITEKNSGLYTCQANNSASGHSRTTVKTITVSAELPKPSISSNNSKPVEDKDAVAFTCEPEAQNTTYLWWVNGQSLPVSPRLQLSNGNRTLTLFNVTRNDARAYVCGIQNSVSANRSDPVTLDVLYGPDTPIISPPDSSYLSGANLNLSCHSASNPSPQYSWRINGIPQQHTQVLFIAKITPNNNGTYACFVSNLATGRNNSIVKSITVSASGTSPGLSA
# T2: Human BCMA (human, UniProt Q02223 1-54)
# T2 sequence: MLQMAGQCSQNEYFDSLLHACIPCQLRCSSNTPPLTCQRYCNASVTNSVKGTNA
# B1: M3IC-DG2D (bispecific antibody)
# chain 1: EVKLDETGGGLVQPGRPMKLSCVASGFTFSDYWMNWVRQSPEKGLEWVAQIRNKPYNYETYYSDSVKGRFTISRDDSKSSVYLQMNNLRVEDMGIYYCTGSYYGMDYWGQGTSVTVSSASTKGPSVFPLAPSSKSTSGGTAALGCLVKDYFPEPVTVSWNSGALTSGVHTFPAVLQSSGLYSLSSVVTVPSSSLGTQTYICNVNHKPSNTKVDKKVEPKSCGGGGSGGGGSQVQLVESGGGVVQPGRSLRLSCAASGFTFSTYAMNWVRQAPGKGLEWVARIRSKYNNYATYYADSVKDRFTISRDDSKNTLYLQMNSLRAEDTAVYYCARHGNFGNSYVSWFAYWGQGTLVTVSSASVAAPSVFIFPPSDEQLKSGTASVVCLLNNFYPREAKVQWKVDNALQSGNSQESVTEQDSKDSTYSLSSTLTLSKADYEKHKVYACEVTHQGLSSPVTKSFNRGECDKTHTCPPCPAPPVAGPSVFLFPPKPKDTLMISRTPEVTCVVVAVSHEAPEVQFNWYVDGVEVHNAKTKPREEQFNSTFRVVSVLTVVHQDWLNGKEYKCKVSNKGLPAPIEKTISKTKGQPREPQVYTLPPCRDELTKNQVSLWCLVKGFYPSDIAVEWESNGQPENNYKTTPPVLDSDGSFFLYSKLTVDKSRWQQGNVFSCSVMHEALHNHYTQKSLSLSPGK
# chain 2: QTVVTQEPSLTVSPGGTVTLTCRSSTGAVTTSNYANWVQQKPGQAPRGLIGGTNKRAPGVPARFSGSLLGGKAALTLSGVQPEDEAEYYCALWYSNLWVFGGGTKVEIKSSASTKGPSVFPLAPSSKSTSGGTAALGCLVKDYFPEPVTVSWNSGALTSGVHTFPAVLQSSGLYSLSSVVTVPSSSLGTQTYICNVNHKPSNTKVDKKVEPKSC
# heavy: EVKLDETGGGLVQPGRPMKLSCVASGFTFSDYWMNWVRQSPEKGLEWVAQIRNKPYNYETYYSDSVKGRFTISRDDSKSSVYLQMNNLRVEDMGIYYCTGSYYGMDYWGQGTSVTVSSASTKGPSVFPLAPSSKSTSGGTAALGCLVKDYFPEPVTVSWNSGALTSGVHTFPAVLQSSGLYSLSSVVTVPSSSLGTQTYICNVNHKPSNTKVDKKVEPKSCDKTHTCPPCPAPPVAGPSVFLFPPKPKDTLMISRTPEVTCVVVAVSHEAPEVQFNWYVDGVEVHNAKTKPREEQFNSTFRVVSVLTVVHQDWLNGKEYKCKVSNKGLPAPIEKTISKTKGQPREPQVCTLPPSRDELTKNQVSLSCAVKGFYPSDIAVEWESNGQPENNYKTTPPVLDSDGSFFLVSKLTVDKSRWQQGNVFSCSVMHEALHNRFTQKSLSLSPGK
# light: DVVMTQTPLSLPVSLGDQASISCRSSQSLVHSNGNTYLRWYLQKPGQSPKVLIYKVSNRFSGVPDRFSGSGSGTDFTLKISRVEAEDLGVYFCSQSTHVPWTFGGGTKLEIKRTVAAPSVFIFPPSDEQLKSGTASVVCLLNNFYPREAKVQWKVDNALQSGNSQESVTEQDSKDSTYSLSSTLTLSKADYEKHKVYACEVTHQGLSSPVTKSFNRGEC
# notes: structure 3 isotype control; CH2 DG2DCH2
# B2: M3IC-SG2 (bispecific antibody)
# chain 1: B1 chain 1 with C472S, A507D, A512D
# chain 2: B1 chain 2
# heavy: B1 heavy with C230S, A265D, A270D
# light: B1 light
# notes: structure 3 isotype control; CH2 SG2CH2
# B3: M3IC-PG2 (bispecific antibody)
# chain 1: B1 chain 1 with C472P, A507D, A512D
# chain 2: B1 chain 2
# heavy: B1 heavy with C230P, A265D, A270D
# light: B1 light
# notes: structure 3 isotype control; CH2 PG2CH2
# B4: M3IC-G2D (bispecific antibody)
# chain 1: B1 chain 1 with A507D
# chain 2: B1 chain 2
# heavy: B1 heavy with A265D
# light: B1 light
# notes: structure 3 isotype control; CH2 G2DCH2
# B5: M3IC-GG2 (bispecific antibody)
# chain 1: B1 chain 1 with C472G, A507D, A512D
# chain 2: B1 chain 2
# heavy: B1 heavy with C230G, A265D, A270D
# light: B1 light
# notes: structure 3 isotype control; CH2 GG2CH2
# B6: BCMA-M2-WT (bispecific antibody, human IgG1, kappa)
# chain: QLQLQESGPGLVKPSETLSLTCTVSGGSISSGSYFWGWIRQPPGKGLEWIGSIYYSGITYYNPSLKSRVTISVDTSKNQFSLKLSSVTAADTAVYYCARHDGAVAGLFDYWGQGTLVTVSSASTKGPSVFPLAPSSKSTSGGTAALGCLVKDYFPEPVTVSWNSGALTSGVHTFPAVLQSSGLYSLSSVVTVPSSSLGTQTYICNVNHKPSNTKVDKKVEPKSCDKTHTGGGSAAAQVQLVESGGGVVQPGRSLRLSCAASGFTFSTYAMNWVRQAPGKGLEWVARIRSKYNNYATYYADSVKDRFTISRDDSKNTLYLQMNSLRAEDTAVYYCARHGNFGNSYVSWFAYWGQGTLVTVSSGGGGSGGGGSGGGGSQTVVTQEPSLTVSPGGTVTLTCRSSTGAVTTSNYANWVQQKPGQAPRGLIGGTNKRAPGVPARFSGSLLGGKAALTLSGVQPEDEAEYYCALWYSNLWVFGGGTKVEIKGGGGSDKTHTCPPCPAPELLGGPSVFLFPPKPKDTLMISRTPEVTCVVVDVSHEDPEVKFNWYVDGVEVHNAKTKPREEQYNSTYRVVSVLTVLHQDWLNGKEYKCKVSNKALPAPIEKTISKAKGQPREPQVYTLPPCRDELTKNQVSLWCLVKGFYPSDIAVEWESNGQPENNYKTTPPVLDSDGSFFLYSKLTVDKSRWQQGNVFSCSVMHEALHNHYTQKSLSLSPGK
# heavy: QLQLQESGPGLVKPSETLSLTCTVSGGSISSGSYFWGWIRQPPGKGLEWIGSIYYSGITYYNPSLKSRVTISVDTSKNQFSLKLSSVTAADTAVYYCARHDGAVAGLFDYWGQGTLVTVSSASTKGPSVFPLAPSSKSTSGGTAALGCLVKDYFPEPVTVSWNSGALTSGVHTFPAVLQSSGLYSLSSVVTVPSSSLGTQTYICNVNHKPSNTKVDKKVEPKSCDKTHTCPPCPAPELLGGPSVFLFPPKPKDTLMISRTPEVTCVVVDVSHEDPEVKFNWYVDGVEVHNAKTKPREEQYNSTYRVVSVLTVLHQDWLNGKEYKCKVSNKALPAPIEKTISKAKGQPREPQVCTLPPSRDELTKNQVSLSCAVKGFYPSDIAVEWESNGQPENNYKTTPPVLDSDGSFFLVSKLTVDKSRWQQGNVFSCSVMHEALHNRFTQKSLSLSPGK
# light: SYVLTQPPSVSVAPGQTARITCGGNNIGSKSVHWYQQPPGQAPVVVVYDDSDRPSGIPERFSGNSNGNTATLTISRVEAGDEAVYYCQVWDSSSDHVVFGGGTKLTVLRTVAAPSVFIFPPSDEQLKSGTASVVCLLNNFYPREAKVQWKVDNALQSGNSQESVTEQDSKDSTYSLSSTLTLSKADYEKHKVYACEVTHQGLSSPVTKSFNRGEC
# notes: structure 2 (fusion peptide 2, heavy, two light chains); BCMA x CD3; CH2 WT
# B7: BCMA-M2-FES (bispecific antibody, human IgG1, kappa)
# chain: QLQLQESGPGLVKPSETLSLTCTVSGGSISSGSYFWGWIRQPPGKGLEWIGSIYYSGITYYNPSLKSRVTISVDTSKNQFSLKLSSVTAADTAVYYCARHDGAVAGLFDYWGQGTLVTVSSASTKGPSVFPLAPSSKSTSGGTAALGCLVKDYFPEPVTVSWNSGALTSGVHTFPAVLQSSGLYSLSSVVTVPSSSLGTQTYICNVNHKPSNTKVDKKVEPKSCDKTHTGGGSAAAQVQLVESGGGVVQPGRSLRLSCAASGFTFSTYAMNWVRQAPGKGLEWVARIRSKYNNYATYYADSVKDRFTISRDDSKNTLYLQMNSLRAEDTAVYYCARHGNFGNSYVSWFAYWGQGTLVTVSSGGGGSGGGGSGGGGSQTVVTQEPSLTVSPGGTVTLTCRSSTGAVTTSNYANWVQQKPGQAPRGLIGGTNKRAPGVPARFSGSLLGGKAALTLSGVQPEDEAEYYCALWYSNLWVFGGGTKVEIKGGGGSDKTHTCPPCPAPEFEGGPSVFLFPPKPKDTLMISRTPEVTCVVVDVSHEDPEVKFNWYVDGVEVHNAKTKPREEQYNSTYRVVSVLTVLHQDWLNGKEYKCKVSNKALPASIEKTISKAKGQPREPQVYTLPPCRDELTKNQVSLWCLVKGFYPSDIAVEWESNGQPENNYKTTPPVLDSDGSFFLYSKLTVDKSRWQQGNVFSCSVMHEALHNHYTQKSLSLSPGK
# heavy: B6 heavy with L238F, L239E, P335S
# light: B6 light
# notes: structure 2; BCMA x CD3; CH2 FES
# Target: T1, human CEA
# Assay: flow cytometry, human tumor cells (table of the CEA series)
# From the text: (§1) 1) Cell preparation: T cells isolated from CD3-positive human whole blood were used for a CD3 end affinity detection of multifunctional antibody molecule; positive tumor cells of corresponding antigen were used for detecting affinity of tumor antigen; for example, CD38-positive MM. 1S cells (purchased from the Cell Resource Center of Shanghai Institutes for Biological Sciences, Chinese Academy of Sciences) or RPMI 8226 cells (purchased from the Cell Resource Center of Shanghai Institutes for Biological Sciences, Chinese Academy of Sciences) were used for CD38 antigen detection, and PD-L1 positive H358 cells (purchased from the Cell Resource Center of Shanghai Institutes for Biological Sciences, Chinese Academy of Sciences) were used for PD-L1 antigen detection, and so on. The cells were resuspended with 1% FBS-PBS, adjusted to a density of 4×10⁶/ml, and 50 μl of cells were taken from each well, and then plated at 2×10⁵ per well. Cell plating was operated on ice
# (§2) 2) Addition of the antibody: according to the experimental design, the antibody was diluted gradually, and dilution of antibody was operated on ice. For example, the initial concentration of antibody for dilution was 3000 nM, and the antibody was diluted by 3 times with 11 concentration gradients. The diluted antibody was added to a cell well at 50 μl per well, mixed well, and shaked and incubated at 4° C. 1100 rpm/min for 2 h; after washing, the cells were resuspend in 1% FBS-PBS, and a diluted secondary antibody PE anti-human IgG FC (Biolegend, 409304) was added with a final concentration of 8 ug/ml and a volume of 50 μl/well. At the same time, a well only added with cells and secondary antibody was set as a control, the components were mixed well, and incubated under shaking at 1100 rpm/min at 4° C. for 1 h;
# (§3) 5) Data analysis: the data was analyzed by a flow analysis software FlowJo 7.6 thereby obtaining an average fluorescence intensity of the specific antibody concentration, plotted by a Graphpad Prism 5 with the antibody concentration (nM) as an abscissa and the average fluorescence intensity as an ordinate; the EC50 value was calculated by the method of One site—Specific binding, and the EC50 value indicated the cell affinity of the antibody to the corresponding target antigen.
row,Binder,binding result
1,B1,no binding
2,B2,no binding
3,B3,no binding
4,B4,no binding
5,B5,no binding

# Target: T2, Human BCMA
# Assay: flow cytometry, human tumor cells (BCMA+)
# From the text: as §1, §2, §3
row,Binder,EC50 [nM]
1,B6,20.3
2,B7,15.3

# Target: T3, Human CD3ε (human, UniProt P07766 23-126)
# T3 construct: CD3 on T cells isolated from human whole blood
# Assay: flow cytometry, human T cells
# Procedure, shortened: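 Cell binding by flow cytometry: antigen-positive tumor cells (e.g. MM.1S or RPMI 8226 for CD38) or CD3+ T cells, 2×10⁵/well, with antibody 3-fold diluted over 11 points from 3000 nM, 2 h at 4° C with shaking.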
row,Binder,EC50 [nM]
1,B1,638
2,B2,677
3,B3,696
4,B4,607
5,B5,609
6,B6,588
7,B7,532

# Target: T4, Monkey CD3 (monkey)
# T4 construct: whole, on cells; also called CD3 of monkey CD3 positive T cells
# Assay: flow cytometry, monkey T cells
row,Binder,EC50 [nM]
1,B6,676
2,B7,630
